{
  "source": "the Human Domainome abundance scans (Beltran et al. 2025)",
  "parents": {"B1": {"name": "Proto-oncogene vav, residues 782 to 842; numbered along this chain, P15498 (parent)", "chain": "KYFGTAKARYDFCARDRSELSLKEGDIIKILNKKGQQGWWRGEIYGRVGWFPANYVEEDYS"}},
  "note": "± gives the uncertainty stated by the source.",
  "data": [
    {"variants_of": "B1", "assay": "abundance fitness (aPCA) (normalised: wild type 0, dead -1); higher = more abundant; growth selection in yeast, the domain comes from the species named", "settings": "Homo sapiens", "values": [
      {"variant": "KYFGTAKARYDFCARDRSELSLKEGDIIKILNKKGQQGWWNGEIYGRVGWFPANYVEEDYS", "note": "[R41N]", "abundance fitness": "-0.375 ± 0.15"},
      {"variant": "KYFGTAKARYDFCARDRSELSLKEGDIIKILNKKGQQGWWIGEIYGRVGWFPANYVEEDYS", "note": "[R41I]", "abundance fitness": "-0.463 ± 0.12"},
      {"variant": "KYFGTAKARYDFCARDRSELSLKEGDIIKILNKKGQQGWWEGEIYGRVGWFPANYVEEDYS", "note": "[R41E]", "abundance fitness": "0.018 ± 0.085"},
      {"variant": "KYFGTAKARYDFCARDRSELSLKEGDIIKILNKKGQQGWWPGEIYGRVGWFPANYVEEDYS", "note": "[R41P]", "abundance fitness": "-0.588 ± 0.14"},
      {"variant": "KYFGTAKARYDFCARDRSELSLKEGDIIKILNKKGQQGWWAGEIYGRVGWFPANYVEEDYS", "note": "[R41A]", "abundance fitness": "-0.364 ± 0.07"},
      {"variant": "KYFGTAKARYDFCARDRSELSLKEGDIIKILNKKGQQGWWWGEIYGRVGWFPANYVEEDYS", "note": "[R41W]", "abundance fitness": "-0.123 ± 0.12"},
      {"variant": "KYFGTAKARYDFCARDRSELSLKEGDIIKILNKKGQQGWWFGEIYGRVGWFPANYVEEDYS", "note": "[R41F]", "abundance fitness": "0.081 ± 0.091"},
      {"variant": "KYFGTAKARYDFCARDRSELSLKEGDIIKILNKKGQQGWWSGEIYGRVGWFPANYVEEDYS", "note": "[R41S]", "abundance fitness": "-0.359 ± 0.084"},
      {"variant": "KYFGTAKARYDFCARDRSELSLKEGDIIKILNKKGQQGWWQGEIYGRVGWFPANYVEEDYS", "note": "[R41Q]", "abundance fitness": "0.129 ± 0.073"},
      {"variant": "KYFGTAKARYDFCARDRSELSLKEGDIIKILNKKGQQGWWTGEIYGRVGWFPANYVEEDYS", "note": "[R41T]", "abundance fitness": "-0.633 ± 0.13"},
      {"variant": "KYFGTAKARYDFCARDRSELSLKEGDIIKILNKKGQQGWWCGEIYGRVGWFPANYVEEDYS", "note": "[R41C]", "abundance fitness": "-0.002 ± 0.098"},
      {"variant": "KYFGTAKARYDFCARDRSELSLKEGDIIKILNKKGQQLWWRGEIYGRVGWFPANYVEEDYS", "note": "[G38L]", "abundance fitness": "-0.55 ± 0.11"},
      {"variant": "KYFGTAKARYDFCARDRSELSLKEGDIIKILNKKGQQTWWRGEIYGRVGWFPANYVEEDYS", "note": "[G38T]", "abundance fitness": "-0.69 ± 0.14"},
      {"variant": "KYFGTAKARYDFCARDRSELSLKEGDIIKILNKKGQQQWWRGEIYGRVGWFPANYVEEDYS", "note": "[G38Q]", "abundance fitness": "-0.186 ± 0.14"},
      {"variant": "KYFGTAKARYDFCARDRSELSLKEGDIIKILNKKGQQEWWRGEIYGRVGWFPANYVEEDYS", "note": "[G38E]", "abundance fitness": "-0.438 ± 0.17"},
      {"variant": "KYFGTAKARYDFCARDRSELSLKEGDIIKILNKKGQQKWWRGEIYGRVGWFPANYVEEDYS", "note": "[G38K]", "abundance fitness": "-0.248 ± 0.18"},
      {"variant": "KYFGTAKARYDFCARDRSELSLKEGDIIKILNKKGQQAWWRGEIYGRVGWFPANYVEEDYS", "note": "[G38A]", "abundance fitness": "-0.619 ± 0.12"},
      {"variant": "KYFGTAKARYDFCARDRSELSLKEGDIIKILNKKGQQVWWRGEIYGRVGWFPANYVEEDYS", "note": "[G38V]", "abundance fitness": "-0.51 ± 0.1"},
      {"variant": "KYFGTAKARYDFCARDRSELSLKEGDIIKILNKKGQQPWWRGEIYGRVGWFPANYVEEDYS", "note": "[G38P]", "abundance fitness": "-0.944 ± 0.25"},
      {"variant": "KYFGTAKARYDFCARDRSELSLKEGDIIKILNKKGQQFWWRGEIYGRVGWFPANYVEEDYS", "note": "[G38F]", "abundance fitness": "-0.82 ± 0.29"},
      {"variant": "KYFGTAKARYDFCARDRSELSLKEGDIIKILNKKGQQMWWRGEIYGRVGWFPANYVEEDYS", "note": "[G38M]", "abundance fitness": "-0.795 ± 0.23"},
      {"variant": "KYFGTAKARYDFCARDRSELSLKEGDIIKILNKKGQQDWWRGEIYGRVGWFPANYVEEDYS", "note": "[G38D]", "abundance fitness": "-0.265 ± 0.11"},
      {"variant": "KYFGTAKARYDFCARDRSELSLKEGDIIKILNKKGQQHWWRGEIYGRVGWFPANYVEEDYS", "note": "[G38H]", "abundance fitness": "-0.418 ± 0.18"},
      {"variant": "KYFGTAKARYDFCARDRSELSLKEGDIIKILNKKGQQIWWRGEIYGRVGWFPANYVEEDYS", "note": "[G38I]", "abundance fitness": "-0.911 ± 0.25"},
      {"variant": "KYFGTAKARYDFCARDRSELSLKEGDIIKILNKKGQQCWWRGEIYGRVGWFPANYVEEDYS", "note": "[G38C]", "abundance fitness": "-0.725 ± 0.23"},
      {"variant": "KYFGTAKARYDFCARDRSELSLKEGDIIKILNKKGQQRWWRGEIYGRVGWFPANYVEEDYS", "note": "[G38R]", "abundance fitness": "-0.539 ± 0.11"},
      {"variant": "KYFGTAKARYDFCARDRSELSLKEGDIIKILNKKGQQWWWRGEIYGRVGWFPANYVEEDYS", "note": "[G38W]", "abundance fitness": "-0.928 ± 0.31"},
      {"variant": "KYFGTAKARYDFCARDRSELSLKEGDIIKILNKKGQQNWWRGEIYGRVGWFPANYVEEDYS", "note": "[G38N]", "abundance fitness": "-0.309 ± 0.16"},
      {"variant": "KYFGTAKARYDFCARDRSELSLKEGDIIKILNKKGQQGWQRGEIYGRVGWFPANYVEEDYS", "note": "[W40Q]", "abundance fitness": "-0.876 ± 0.46"},
      {"variant": "KYFGTAKARYDFCARDRSELSLKEGDIIKILNKKGQQGWERGEIYGRVGWFPANYVEEDYS", "note": "[W40E]", "abundance fitness": "-0.924 ± 0.28"},
      {"variant": "KYFGTAKARYDFCARDRSELSLKEGDIIKILNKKGQQGWIRGEIYGRVGWFPANYVEEDYS", "note": "[W40I]", "abundance fitness": "-0.385 ± 0.24"},
      {"variant": "KYFGTAKARYDFCARDRSELSLKEGDIIKILNKKGQQGWFRGEIYGRVGWFPANYVEEDYS", "note": "[W40F]", "abundance fitness": "-0.303 ± 0.21"},
      {"variant": "KYFGTAKARYDFCARDRSELSLKEGDIIKILNKKGQQGWRRGEIYGRVGWFPANYVEEDYS", "note": "[W40R]", "abundance fitness": "-0.948 ± 0.19"},
      {"variant": "KYFGTAKARYDFCARDRSELSLKEGDIIKILNKKGQQGWSRGEIYGRVGWFPANYVEEDYS", "note": "[W40S]", "abundance fitness": "-0.785 ± 0.14"},
      {"variant": "KYFGTAKARYDFCARDRSELSLKEGDIIKILNKKGQQGWCRGEIYGRVGWFPANYVEEDYS", "note": "[W40C]", "abundance fitness": "-0.833 ± 0.23"},
      {"variant": "KYFGTAKARYDFCARDRSELSLKEGDIIKILNKKGQQGWVRGEIYGRVGWFPANYVEEDYS", "note": "[W40V]", "abundance fitness": "-0.648 ± 0.083"},
      {"variant": "KYFGTAKARYDFCARDRSELSLKEGDIIKILNKKGQQGWMRGEIYGRVGWFPANYVEEDYS", "note": "[W40M]", "abundance fitness": "-0.428 ± 0.14"},
      {"variant": "KYFGTAKARYDFCARDRSELSLKEGDIIKILNKKGQQGWPRGEIYGRVGWFPANYVEEDYS", "note": "[W40P]", "abundance fitness": "-0.876 ± 0.46"},
      {"variant": "KYFGTAKARYDFCARDRSELSLKEGDIIKILNKKGQQGWDRGEIYGRVGWFPANYVEEDYS", "note": "[W40D]", "abundance fitness": "-0.747 ± 0.23"},
      {"variant": "KYFGTAKARYDFCARDRSELSLKEGDIIKILNKKGQQGWLRGEIYGRVGWFPANYVEEDYS", "note": "[W40L]", "abundance fitness": "-0.306 ± 0.077"},
      {"variant": "KYFGTAKARYDFCARDRSELSLKEGDIIKILNKKGQQGWKRGEIYGRVGWFPANYVEEDYS", "note": "[W40K]", "abundance fitness": "-0.362 ± 0.35"},
      {"variant": "KYFGTAKARYDFCARDRSELSLKEGDIIKILNKKGQQGWYRGEIYGRVGWFPANYVEEDYS", "note": "[W40Y]", "abundance fitness": "-0.182 ± 0.14"},
      {"variant": "KYFGTAKARYDFCARDRSELSLKEGDIIKILNKKGQQGWGRGEIYGRVGWFPANYVEEDYS", "note": "[W40G]", "abundance fitness": "-0.707 ± 0.084"},
      {"variant": "KYFGTAKARYDFCARDRSELSLKEGDIIKILNKKGQQGWARGEIYGRVGWFPANYVEEDYS", "note": "[W40A]", "abundance fitness": "-1.13 ± 0.26"}
    ]}
  ]
}
